This test addresses Biotin-aprotinin (UniProt P00974). Kind of test: stopped-flow tryptophan fluorescence, avidin 0.5 µM, biotin-protein 5.0 µM.

Native avidin, sequence (P02701 25-152 limits assumed): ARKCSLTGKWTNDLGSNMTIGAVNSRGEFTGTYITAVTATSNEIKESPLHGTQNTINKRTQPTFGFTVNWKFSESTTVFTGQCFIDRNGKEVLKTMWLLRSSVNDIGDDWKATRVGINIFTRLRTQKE

With “Native avidin (from UniProt P02701 25-152)”, the k (kobs, observed first-order rate constant) is 73.5 s⁻¹.

(Values after US20210388337A1, “PROTEIN-POLYMER CONJUGATES AND METHODS FOR THEIR PREPARATION” (Carnegie Mellon University, priority 2018, published 2021).)
